Several values for one entry are separate records, joined by “and”; a condition that tells them apart may be missing. Equal entries are not always repeated. Where two headings read alike, the source gives them in different places.
T1: human Nectin-4 (human, UniProt Q96NY8 32-510)
T1 sequence (looked up): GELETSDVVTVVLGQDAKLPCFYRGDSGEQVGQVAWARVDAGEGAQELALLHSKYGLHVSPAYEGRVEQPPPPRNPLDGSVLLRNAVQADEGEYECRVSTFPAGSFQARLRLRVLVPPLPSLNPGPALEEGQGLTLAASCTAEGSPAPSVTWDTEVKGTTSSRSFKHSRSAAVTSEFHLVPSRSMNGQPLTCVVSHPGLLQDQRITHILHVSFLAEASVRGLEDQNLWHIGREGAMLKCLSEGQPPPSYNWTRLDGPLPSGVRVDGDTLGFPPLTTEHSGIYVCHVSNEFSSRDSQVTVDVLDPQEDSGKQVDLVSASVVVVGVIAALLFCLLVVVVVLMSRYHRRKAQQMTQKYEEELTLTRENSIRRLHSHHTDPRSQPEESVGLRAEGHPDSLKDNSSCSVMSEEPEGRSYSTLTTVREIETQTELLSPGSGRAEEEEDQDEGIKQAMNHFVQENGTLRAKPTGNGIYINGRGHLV


Assays:
human Nectin-4 [1] = molecular target: T1, human Nectin-4; experiment: cell-based or functional assay
human Nectin-4 [2] = molecular target: T1, human Nectin-4; experiment: cell-based or functional assay; remark: listed apart in the source
human Nectin-4 [3] = molecular target: T1, human Nectin-4; experiment: FACS on BT474 cells
Protocol: The solutions of different concentrations were added to 384-well plates, 10 µl per well.
BT474 cells (breast cancer cells) expressing Nectin-4 on the cell surface were collected by centrifugation at 100 g at room temperature for 5 minutes, and then the cells were washed with PBS containing 0.5% BSA once and were centrifuged at 100 g at room temperature for 5 minutes. […] After incubation at 4° C. for 1 hour, fluorescently labeled goat anti-human IgG secondary antibody was added. After continued incubation at 4° C. for 1 hour, mean fluorescence readings of the cell populations were analyzed by a flow cytometer.

human Nectin-4 [4] = molecular target: T1, human Nectin-4; experiment: cell-based or functional assay; remark: listed apart in the source

Binder	EC50 (ng/ml), inhibition of proliferation of BT474 cells (human Nectin-4 [1])	Endocytosis efficiency (%) (human Nectin-4 [2])	EC50 (human Nectin-4 [3]) [ng/mL]	EC50 (ng/ml), inhibition of proliferation of BT474 cells (human Nectin-4 [4])	Percentage of cell killing at the highest concentration (human Nectin-4 [1]) [%]	Percentage of cell killing at the highest concentration (human Nectin-4 [4]) [%]
20M12 xiIgG-E (antibody, V domains shown, vcMMAE conjugated to the TECP-reduced antibody; residues not stated; DAR 4.0±1) VH: QVQLQQSGPELVKPGASVRISCKASGYTFTSYYIHWVKQRPGQGLEWIGWIYPGNANNKYNENFKGKATLTADKSSSTAYMQLSSLTSEDSAVYFCARSVYYFDYWGQGTTLTVSS VL: SVVMTQTPKFLLVSAGDRVTITCKASQSVSNDVAWYQQKPGQSPKLLIYYASNRNTGVPDRFTGSGYGTDFTFNISTVQAEDLAVYFCQQDYSSPYTFGGGTKLEIKR	14.8 ng/mL	67	227	–	41.4	–
mIgG 5M21-E (antibody, V domains shown) VH: QVQLQQSGPELVKPGASVRITCKASGYTFTTYYIHWVKQRPGQGLEWIGWIYPGNVNTKYNEKFKGKATLTADKSSSTAYMQLSSLTSEDSAVYFCARGLYYFDYWGQGTTLTVSS VL: SIVMTQTPKFLLVSAGDRLTITCKASQSVSNDVAWYQQKPGQSPKLLIYYASNRYTGVPDRFTGSGYGTDFTFTISTVQAEDLAVYFCQQDYSSPYTFGGGTKLEIK	–	–	–	3.21 ng/mL	–	36
20M12 hz01-E (antibody, human IgG1, kappa, V domains shown, vcMMAE conjugated to the TECP-reduced antibody; residues not stated; DAR 4.0±1) VH: QVQLVQSGAEVKKPGASVKVSCKASGYTFTSYYIHWVRQAPGQRLEWMGWIYPGNANNKYNENFKGRVTITRDTSASTAYMELSSLRSEDTAVYYCARSVYYFDYWGQGTLVTVSS VL: EVVMTQSPATLSVSPGERATLSCKASQSVSNDVAWYQQKPGQAPRLLIYYASNRNTGIPARFSGSGSGTEFTLTISSLQSEDLAVYFCQQDYSSPYTFGGGTKVEIKR	24.2 ng/mL	56.6	420	–	32.2	–
5M21 hz11-E (antibody, human IgG1, kappa, V domains shown, vcMMAE conjugated to the TECP-reduced antibody; residues not stated; DAR 4.0±1) VH: QVQLVQSGAEVKKPGASVKVSCKASGYTFTTYYIHWVRQAPGQRLEWMGWIYPGNVNTKYNEKFKGRVTITADKSASTAYMELSSLRSEDTAVYYCARGLYYFDYWGQGTLVTVSS VL: DIQMTQSPSSLSASVGDRVTITCKASQSVSNDVAWYQQKPGKVPKLLIYYASNRYTGVPSRFSGSGSGTDFTLTISSLQPEDLATYFCQQDYSSPYTFGGGTKVEIKR	–	–	–	–	–	38.5
42D20 hz43-E (antibody, V domains shown, vcMMAE conjugated to the TECP-reduced antibody; residues not stated; DAR 4.0±1) VH: QVQLQESGPGLVKPSETLSLTCTVSGFSLIDYGVSWIRQPPGKGLEWIGVIWGDAKIYYNSVLKSRVTISKDNSKSQVSLKLSSVTAADTAVYYCAKQGGLLFYAMDYWGQGTLVTVSS VL: DIVMTQSPDSLAVSLGERATINCKSSQSLLNTYSQKNYLAWYQQKPGQSPKLLIYFASTRESGVPDRFSGSGSETDFTLTISSLQAEDLAVYFCQQHYNTPFTFGAGTKLELKR	6.31 ng/mL	68.9	430	–	42.5	–
42D20 hz64-E (antibody, V domains shown, vcMMAE conjugated to the TECP-reduced antibody; residues not stated; DAR 4.0±1) VH: QVQLQESGPGLVKPSETLSLTCTVSGFSLIDYGVSWIRQPPGKGLEWIGVIWGGGKIYYNSVLKSRVTISKDNSKSQVSLKLSSVTAADTAVYYCAKQGGLLFYAMDYWGQGTLVTVSS VL: DIVMTQSPDSLAVSLGERATINCKSSQSLLNKYSQKNYLAWYQQKPGQPPKLLIYFASTRESGVPDRFSGSGSGTDFTLTISSLQAEDVAVYYCQQHYNTPFTFGAGTKLELKR	4.58 ng/mL	66.6	373	–	40.9	–

More lines, main results first:

EC50 (ng/ml), inhibition of proliferation of BT474 cells (human Nectin-4 [1])	Endocytosis efficiency (%) (human Nectin-4 [2])	EC50 (human Nectin-4 [3]) [ng/mL]	EC50 (ng/ml), inhibition of proliferation of BT474 cells (human Nectin-4 [4])	Binder	Percentage of cell killing at the highest concentration (human Nectin-4 [1]) [%]	Percentage of cell killing at the highest concentration (human Nectin-4 [4]) [%]
–	–	–	21.1 ng/mL	5M21 hz10-E (antibody, human IgG1, kappa, V domains shown, vcMMAE conjugated to the TECP-reduced antibody; residues not stated; DAR 4.0±1) VH: QVQLVQSGAEVKKPGASVKVSCKASGYTFTTYYIHWVRQAPGQRLEWMGWIYPGNVNTKYNEKFKGRVTITADKSASTAYMELSSLRSEDTAVYYCARGLYYFDYWGQGTLVTVSS VL: DIQMTQSPSSLSASVGDRVTITCKASQSVSNDVAWYQQKPGKVPKLLIYYASNRYTGVPSRFSGSGSGTDFTLTISSLQPEDVATYYCQQDYSSPYTFGGGTKVEIKR	–	29.4
31.6 ng/mL	58.4	232	–	20M12 hz11-E (antibody, human IgG1, kappa, V domains shown, vcMMAE conjugated to the TECP-reduced antibody; residues not stated; DAR 4.0±1) VH: QVQLVQSGAEVKKPGASVKVSCKASGYTFTSYYIHWVRQAPGQRLEWMGWIYPGNANNKYNENFKGRVTITADKSASTAYMELSSLRSEDTAVYYCARSVYYFDYWGQGTLVTVSS VL: EVVMTQSPATLSVSPGERATLSCKASQSVSNDVAWYQQKPGQAPRLLIYYASNRNTGIPARFSGSGSGTEFTLTISSLQSEDLAVYFCQQDYSSPYTFGGGTKVEIKR	38.3	–
9.41 ng/mL	74	307	2.61 ng/mL	42D20 hz10-E (antibody, V domains shown, vcMMAE conjugated to the TECP-reduced antibody; residues not stated; DAR 4.0±1) VH: QVQLQESGPGLVKPSETLSLTCTVSGFSLIDYGVSWIRQPPGKGLEWIGVIWGDGKIYYNSVLKSRVTISKDNSKSQVSLKLSSVTAADTAVYYCAKQGGLLFYAMDYWGQGTLVTVSS VL: DIVMTQSPDSLAVSLGERATINCKSSQSLLNSYSQKNYLAWYQQKPGQPPKLLIYFASTRESGVPDRFSGSGSGTDFTLTISSLQAEDVAVYYCQQHYNTPFTFGAGTKLELKR	40.8	33.7
3.61 ng/mL	71.1	504	–	42D20 hz44-E (antibody, V domains shown, vcMMAE conjugated to the TECP-reduced antibody; residues not stated; DAR 4.0±1) VH: QVQLQESGPGLVKPSETLSLTCTVSGFSLIDYGVSWIRQPPGKGLEWIGVIWGDAKIYYNSVLKSRVTISKDNSKSQVSLKLSSVTAADTAVYYCAKQGGLLFYAMDYWGQGTLVTVSS VL: DIVMTQSPDSLAVSLGERATINCKSSQSLLNKYSQKNYLAWYQQKPGQPPKLLIYFASTRESGVPDRFSGSGSGTDFTLTISSLQAEDVAVYYCQQHYNTPFTFGAGTKLELKR	42.7	–
2.42 ng/mL	67.9	299	–	42D20 hz63-E (antibody, V domains shown, vcMMAE conjugated to the TECP-reduced antibody; residues not stated; DAR 4.0±1) VH: QVQLQESGPGLVKPSETLSLTCTVSGFSLIDYGVSWIRQPPGKGLEWIGVIWGGGKIYYNSVLKSRVTISKDNSKSQVSLKLSSVTAADTAVYYCAKQGGLLFYAMDYWGQGTLVTVSS VL: DIVMTQSPDSLAVSLGERATINCKSSQSLLNTYSQKNYLAWYQQKPGQSPKLLIYFASTRESGVPDRFSGSGSETDFTLTISSLQAEDLAVYFCQQHYNTPFTFGAGTKLELKR	47	–
–	–	–	4.64 ng/mL	mIgG 42D20-E (antibody, V domains shown) VH: QVQLKESGPGLVAPSQSLSISCTVSGFSLIDYGVSWIRQPPGKGLEWLGVIWGDGKIYYNSVLKSRLSISKDNSKSQVFLKMNSLQTDDTAMYYCAKQGGLLFYAMDYWGQGTSVTVSS VL: DIVMTQSPSSLAMSVGQRVTMNCKSSQSLLNSYSQKNYLAWYQQKPGQSPKLLIYFASTRESGVPDRFIGSGSETDFTLTISSVQAEDLADYFCQQHYNTPFTFGSGTKLEIK	–	33.5
2.26 ng/mL and 3.86 ng/mL and 2.91 ng/mL and 3.17 ng/mL	58.9	230	5.37 ng/mL and 3.95 ng/mL and 5.11 ng/mL and 5.3 ng/mL	Enfortumab-E (antibody, human IgG1, kappa, V domains shown, vcMMAE conjugated to the TECP-reduced antibody; residues not stated; DAR 4.0±1) VH: EVQLVESGGGLVQPGGSLRLSCAASGFTFSSYNMNWVRQAPGKGLEWVSYISSSSSTIYYADSVKGRFTISRDNAKNSLSLQMNSLRDEDTAVYYCARAYYYGMDVWGQGTTVTVSS VL: DIQMTQSPSSVSASVGDRVTITCRASQGISGWLAWYQQKPGKAPKFLIYAASTLQSGVPSRFSGSGSGTDFTLTISSLQPEDFATYYCQQANSFPPTFGGGTKVEIKR	–	–

Source: patent publication US20230265183A1 (MABWELL SHANGHAI BIOSCIENCE, published 2023)
